According to the nanobody polyreactivity screen of Harvey et al. (2022):

Assay: yeast display, Sf9 membrane polyspecificity reagent, FACS + sequencing; frameworks hold sequencing errors
In short: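 In a synthetic yeast display library (Saccharomyces cerevisiae BJ5465), nanobody expression was induced with galactose for 36–48 hours. FACS gates were set low and high (top ~1%) using anti-HA fluorescence for expression and streptavidin fluorescence for binding of the Sf9 membrane reagent. Each polyreactivity label is drawn from the gate of origin.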

Row | Sequence | polyreactivity (PSR sort gate)
1 | QVQLVESGGRLVQAGRSLRLSCAASGRTLKQYVMGWYRQAPGKERELVAAISRRGSSTYYADSVKGRFTISRDNAKNTVYLQMYSLKPEDTAVYYCAAPVYTTRHITAAYEEYGYWGQGTQVNVSS | high polyreactivity
2 | QVQLVESGGGLVQAGGSLRLSCAASGRIFNGYAMGWYRQAPGKERELVARISKRGGRTYYADSVKGRFTISRDNAKNTVYLQMNSLKPEDTAVYYCNAVPRVTRPSAVEEYDYWGQGTQVTVSS | high polyreactivity
3 | QDQLVESGGGLVQAGGSLRLSCAASGRIFRGNAMGWYRQAPGKEREMVAAISRRSGSTYYADSVKGRFTISRDNAKNTVYLQMNSLKPEDTAVYYCAATSSLGDFRYDYWGQVTQVTVSS | high polyreactivity
4 | QVQLVESGGGLVQAGGSLRLSCAASGRIFVYNAMGWYRQAPGKERELVASISSTTSTYYADSVKGRFTISRDNAKNTVYLQMNSLKPEDTAVYYCNARYQTRYGRYWYKVRGMDYWGQGTQVTVSS | high polyreactivity
5 | QVQLVESGGGLVQAGGSLRLSCAASGSILAINAMGWYRQAPGKERELVAAINWSGGSTFYADSVKGRFTISRDNAKNTVYLQMNSLKPEDTAVYYCNVEWTDSERGDYYVDYDYWGQGTQVTVSS | low polyreactivity
6 | QGQLVESGGGLVQAGVSLRLSCAASGSIFGFYGMGWYRQAPGKERELVAAISYRGGNTYYADSVKGRFTSSRDNAKNTVFLQKNSLKPEDTAVYYCNSMWKHGAYRGAYGYWGQGTQVTVSS | high polyreactivity
7 | QVQLVESGGGLVQAGGSLRLSCAASGLIFYTYAMGWYRQAPGKERELVADINRSDGSTYYADSVKGRFTISRDNAKNTVYLQMNRLKPEDTAVYYCAVVGPYYSRFGGRYYYWGQGTQVTVSS | low polyreactivity
8 | QVQLVESGGGLVQAGGSLRLSCAASGRTFGSYAMGWYRQAPGKERELVAAITASGVRTYYADSVKGRFTISRDNAKNTVYLQMNSLKPEDTAVYYCNARRLSTVQYDYWGQGTQVTVSS | high polyreactivity
9 | QVQLVESGGGLVQSGGSLRLSCAASGIIFEYYDMGWYRQAPGKEREFVAAIDSGGSTYYADSVKGRFTISRDNAKNTVYLQMNSLKPEDTAVYYCAASRPPNTSNTGYGSWGQGTQVTVSS | low polyreactivity
10 | QVQLVESGGGLDQAGGSLRLSCAASGSTLGYNAMGWYRQAPGKERVLVAAISRSGGITYYADSVKGRFTISRDTAKNTVYLQMNSLKPEDTAVYYCNAVDRTRYRPGNDYDYWGQGTQVTVSS | high polyreactivity
11 | QVQHVESGGGLVQAGGSLRLSCAASGFTFRWYTMGWYRQAPGKERELVASIRYGGGSTYYADSVKGRFTISRDNAKNTVYLQMNSLKPEDTAVYYCAAESAWTSPYDYWGQGTQVTVSS | high polyreactivity
12 | QVQLVESGGGLVQAGGSLRLSCAASGFIFWGNTMGWYRQAPGKERELVAAISSSGGRTYYADSVKGRFTISRDNAKNTVYLQMNSLKPEDTAVYYCAKVRRSDYDSDYWGQGTQVTVSS | high polyreactivity
13 | QVQLVESGGGLVQAGGSLRLSCAASGITFGRNTKGWYRQAPGKERELVAAIDSGGNTYADSVKGRFTISRDNAKNTVYLQMNSLKPEDTAVYYCAADSYPAYLGFVGFDYWVQGTQVTVSS | low polyreactivity
14 | QVQLVESGGGLVQAGGSLRLSCAASGRIFDLYTMGWYRQAPGKERELVAAISSSGGSTYYADSVKGRFTISRDNARNTVYLQMNSLKPEDTAVYYCNADWYYAGYGYWGQGTQVTVSS | low polyreactivity
15 | QVQLVESGGGLVQAGGSLRISCAASGRTFVGNAMGWYRQAPGKERELVAAMTLSDGSTYYADSVKGRFTISRDIAMNTVYLQMNSLKPEDTAVYYCNAGDGPDEEYDYWGQVTQVTVSS | low polyreactivity
16 | QVQLVESGGGLVQAGGSLRLSCAASGRIFSDYAMGWYRQAPGKERELVATITSGDSTNYADSVKGRFTISRDNAKNTVYLQMNSLKTEDTAVYYCNADRFADYDYWGQGTQVTVSS | low polyreactivity
17 | QVQLVESGGGLVQAGGSLRLSCAASGSTFGRYAMGWYRQAPGKERELVAAISKSGGSTYYADSVKGRFTISRDNEKNTVYLQMNSLNPEDTAVYYCAATTTRYSYEYWGQGTQVTVSS | low polyreactivity
18 | QVQLVDSGGGLVQAGGSLRLSCAASGFIFRRNAMGWYRQAPGKERELVAAITGGGGSTYYADSVKGRFTISRDNAKNTVYLQMNSLKPEDTAVYYCNALPARRRWQVDYWGQGTQVTVSS | high polyreactivity
19 | QVQLVESGGGLVQAGGSLRLSCAASGRIFDGYAMGWYIQAPGKERELVAAISSRGGRTYYADSVKGRFTISRDNAKNTVYLQMNSLKPEDSAVYYCAADDPYGECDYWGQGTQVTVSS | low polyreactivity
20 | QVQLVESGGGLVQAGGSLRLSCAASGSTFEYYAMGWDRQAPGKERELVAGISTGGSSNYADSVKGRFTISRDNAKNTVYLQMNSLKPEDTAVYYCNRDWALYVFGSHYHAYYSWGQGTQVTVSS | low polyreactivity
21 | QGQLVESGGGLVQAGGSLRISCAASGRIYRINAMGWYRQAPGKERELVANITSGGGSTYADSVKGRFTISRDNAKNTVYLQMNSRKPEDTAVYYCAARSRIGRYTYDYWGQGTQVTVSS | high polyreactivity
22 | QVQLVESGGGLVQAGGSLRLSCAASGSTFVGYAMGWYRQAPGKERELVAAITTDGGSTYYADSVKVRFTISRDNAKNTVYLQMNSLKPEDTAVYYCAADHRVYPRDDWDSPDEFGYWGQGTQVTVSS | low polyreactivity
23 | QVQLGDSGGGLVQAGGSLRLSCAPSGSIFQRYAMGWYRLAPGKERELVAAISYNGGSTYYADSVKGRFTISRDNAKNTVYLQMNSLKPEDTAVYYCAARGYRKTRFDYWGQGTKVTVSS | high polyreactivity
24 | QVQLVESGGGLVQAGGSLRLSCAASGRTIGKNAMGWYRQAPGKERELVAAISWRGGSTRYADSVKGRFTISRDNAKNTVYLQMNSLKPEDTAVYYCAVRFLTYWHGSYWYDYWGQGTQVTVSS | high polyreactivity
25 | QVQLVESGGALVQAGGSLRLSCAASGFIFFQYAMGWYRQAPGKERELVAAISGSGVTTYYADSVKGRFTISRDNAKNTVYLQMNSLKPEDTAVYYCNAALRWKYDWGQGTQVTVSS | low polyreactivity
26 | QVQLVESGGGLVQAGGSLRLSCAASRITSYPYAMGWSRQGPGKERELVAAISKRGGGTYYADSVKGPFTISRDNAMNTVYLQLNSLKPVDTAVYYCAKSWGPTTYKIVPAYGYWGQGTQVTVSS | high polyreactivity
27 | QVQLVESGGGLVQAGGSLSLSCAASGRIFAGYAMGWYRQAPGKERELVAVISSRGGRTYYADSVKGRFTISRDNAKNTVYLQMNSLKPEDTAVYYCNRVFSYQYKRDYWGQGTQVTVSS | high polyreactivity
28 | QDQLVESGGGLVQAGGSLSLSCAASGRTFYWYVMGWYRQAPGKERELVAAITQTGSSSYYADSVKGRFTISRDNAKNTVYLQMNSLKPEDTAVYYCADRLSRNHYEVDYWGQGTQVTVSS | low polyreactivity
29 | QVQLVESGGGLVQAGGSLRLSCAASGRTFGYYAMGWYRQAPGKERELVAAINSRGGSTYYADSVKGRFTISRDNAKNTVYLQMNSLKPEDTAVYYCAVVRWRQYIFATYDYWGQGTQVTVSS | high polyreactivity
30 | QVHLQESAGGLVQAGGSLRLTCSASGYISFDASMGWYRQAPGKERELAASIPKGSSTNYADSVKGRFTIRDNATITVYLQMNSLQPEDTAVCYCAVTYPYWGDYTYWGQGTQVTVSC | low polyreactivity
